From PMC5566480

Assays:
[1] = biological target: Recombinant human Toll-like receptor 2 (rTLR2) (UniProt O60603); assay: ELISA; settings: parent: est. 0.37; read off a plot
[2] = biological target: Recombinant human Toll-like receptor 2 (rTLR2) (UniProt O60603); assay: ELISA; dose-dependent; rTLR2 coated, LipL32 variants 0 to 2 μM in PBS, 90 min at 37 °C, anti-His6 detection; in the presence of 1 µM EGTA; Kd from a one-site fit
[3] = biological target: Recombinant human Toll-like receptor 2 (rTLR2) (UniProt O60603); assay: ELISA; dose-dependent; rTLR2 coated, LipL32 variants 0 to 2 μM in PBS, 90 min at 37 °C, anti-His6 detection; in the presence of 1 µM Ca2+; Kd from a one-site fit
[4] = biological target: Recombinant human Toll-like receptor 2 (rTLR2) (UniProt O60603); assay: ELISA; competition: synthesized peptides (1 μM, and dose-dependent for IC50) against the binding of rLipL32WT to rTLR2
[5] = biological target: Recombinant human Toll-like receptor 2 (rTLR2) (UniProt O60603); assay: AFM force spectroscopy; rTLR2 covalently fixed on mica, LipL32 or variant coupled to the AFM tip (glutaraldehyde); force-distance curves, maximum distribution force and binding frequency; anti-TLR2 antibody as neutralising control

Sequence of Recombinant human Toll-like receptor 2 (rTLR2) (O60603 21-784): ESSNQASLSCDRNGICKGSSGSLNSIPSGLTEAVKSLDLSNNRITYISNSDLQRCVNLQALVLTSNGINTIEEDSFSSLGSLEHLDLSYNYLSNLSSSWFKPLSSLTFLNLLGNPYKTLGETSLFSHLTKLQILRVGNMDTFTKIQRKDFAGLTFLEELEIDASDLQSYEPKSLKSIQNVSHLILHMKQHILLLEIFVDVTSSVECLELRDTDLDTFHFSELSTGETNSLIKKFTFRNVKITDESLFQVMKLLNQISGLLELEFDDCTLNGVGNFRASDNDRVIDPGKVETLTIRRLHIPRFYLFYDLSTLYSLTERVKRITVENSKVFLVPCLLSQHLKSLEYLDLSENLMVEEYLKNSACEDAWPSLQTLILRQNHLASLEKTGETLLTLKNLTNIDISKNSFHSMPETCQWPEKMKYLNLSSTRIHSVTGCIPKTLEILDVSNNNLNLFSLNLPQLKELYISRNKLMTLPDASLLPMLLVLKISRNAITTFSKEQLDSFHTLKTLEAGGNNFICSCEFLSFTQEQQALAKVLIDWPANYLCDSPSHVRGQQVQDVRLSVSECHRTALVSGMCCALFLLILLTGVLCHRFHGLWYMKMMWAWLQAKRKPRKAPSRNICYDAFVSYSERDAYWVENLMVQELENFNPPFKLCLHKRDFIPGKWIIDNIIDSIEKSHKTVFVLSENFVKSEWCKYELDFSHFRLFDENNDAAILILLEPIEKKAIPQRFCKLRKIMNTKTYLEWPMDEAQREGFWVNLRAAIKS

Row | Substance | Kd [2] [nM] | Kd [3] [nM] | IC50 [4] [nM] | other results
1 | Recombinant LipL32 wild type, mature form (rLipL32; 21-272) L263S | – | – | – | response [1]: 0.29 OD450nm
2 | rLipL32 D196A variant (natural protein) | 160 | 160 | – | –
3 | rLipL32 D195A variant (natural protein) | 120 | 100 | – | –
4 | C25 peptide (248–272 residues of LipL32) | – | – | 140 | –
5 | N20 peptide (1–20 residues of LipL32) | – | – | 90 | –
6 | N50 peptide (1–50 residues of LipL32) | – | – | 70 | –
7 | Recombinant LipL32 wild type, mature form (rLipL32; 21-272) (natural protein) | 450 | 130 | – | maximum distribution force (AFM) [5]: 55.3 pN
